The assay addresses T1, Recombinant human CD40L (human, UniProt P29965 108-261, limits assumed).
T1 construct: also called CD40 ligand
T1 sequence (looked up): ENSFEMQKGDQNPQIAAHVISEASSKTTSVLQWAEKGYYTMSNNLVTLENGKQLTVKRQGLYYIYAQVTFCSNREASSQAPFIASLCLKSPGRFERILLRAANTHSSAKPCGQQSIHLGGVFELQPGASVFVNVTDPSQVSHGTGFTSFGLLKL
The experiment in a line: CD40L/CD40-Fc receptor binding assay.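 Also: plate assay with coated human CD40-Fc, bound ligand detected via HRP anti-biotin antibody and TMB, OD at 450 nm, lower signal indicates stronger inhibition by dAb.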

Residue numbers refer to the chain shown, from its start.

Experimental: A 96 well Nunc Maxisorp assay plate was coated overnight at 4° C. with 100 μl per well of recombinant human CD40/Fc (R&D Systems) at 0.5 μg/ml in carbonate buffer. The plate was washed 3 times with 300 μl of 0.05% Tween/PBS and 3 times with 300 μl of PBS using a Tecan plate washer. The wells were blocked using 200 μl of PBS containing 2% (w/v) BSA and incubated for a minimum of 1 h at room temperature. The wells were washed as above, then 50 μl of purified dAb protein (or unpurified supernatant containing dAb from a micro-culture expression) was added to each well.
The plate was washed as described above, then 100 μl HRP conjugated anti-biotin antibody (1:5000 dilution in diluent) added to each well and the plate incubated for 1 hr at room temperature. The plate was washed again as described above using a Tecan plate washer and the assay developed using 100 μl of SureBlue 1-Component TMB MicroWell Peroxidase solution (the plate was left at room temperature for up to 20 min). The reaction was stopped by the addition of 100 μl M hydrochloric acid. The OD₄₅₀ₙₘ of the plate was assayed within 30 minutes of acid addition. The OD₄₅₀ₙₘ is proportional to the amount of bound streptavidin-HRP conjugate, therefore the greater the degree of dAb inhibition the lower the OD₄₅₀ₙₘ of the resulting signal.

B1: DOM.112 (other)
VH: EVQLLESGGGLVQPGGSLRLSCAASGFTFMDYPMGWVRQAPGKGLEWVSSIGPVGMSTYYADSVKGRFTISRDNSKNTLYLQMNSLRAEDTAVYYCAKYGGTSGRHNTKFDYWGQGTLVTVSS
notes: VH dAb
Take B1: the binding result was “binds”.

B2: DOM.99 (other)
VH: EVQLLESGGGLVQPGGSLRLSCAASGFTFEDYAMSWVRQAPGKGLEWVSTITPGGFWTYYADSVKGRFTISRDNSKNTLYLQMNSLRAEDTAVYYCAKTSSGELQLVEDFDYWGQGTLVTVSS
notes: VH dAb
Regarding B2, the binding result is recorded as “binds”.

B3: DOM.124 (other)
VH: EVQLLESGGGLVQPGGSLRLSCAASGFTFKRYDMDWVRQAPGKGLEWVSTIGSSGYPTYYADSVKGRFTISRDNSKNTLYLQMNSLRAEDTAVYYCAERMPGYFPGFARQFDYWGQGTLVTVSS
notes: VH dAb
For the molecule B3, the binding result is on record as “binds”.

B4: DOM.125 (other)
VH: EVQLLESGGGLVQPGGSLRLSCAASGFTFWRYAMGWVRQAPGKGLEWVSTINDEGRETYYADSVKGRFTISRDNSKNTLYLQMNSLRAEDTAVYYCAKKRVSSSVNAPYEFDYWGQGTLVTVSS
notes: VH dAb
Take B4: the binding result is given as “binds”.

B5: DOM.127 (other)
VH: EVQLLESGGGLVQPGGSLRLSCAASGFTFPSYDMAWVRQAPGKGLEWVSGISRSGSMTYYADSVKGRFTISRDNSKNTLYLQMNSLRAEDTAVYYCAKGVDAHVYYMEPFFDYWGQGTLVTVSS
notes: VH dAb
For the molecule B5, the binding result is on record as “binds”.

B6: DOM.121 (other)
VH: EVQLLESGGGLVQPGGSLRLSCAASGFTFELYRMSWVRQAPGKGLEWVSEISGSGFPTYYADSVKGRFTISRDNSKNTLYLQMNSLRAEDTAVYYCAKSLHDKTQHHQEFDYWGQGTLVTVSS
notes: VH dAb
Regarding B6, the binding result is reported as “binds”.

B7: DOM8.111 (other)
VH: EVQLLESGGGLVQPGGSLRLSCAASGFTFERYPMTWVRQAPGKGLEWVSTIHGSGSATYYADSVKGRFTISRDNSKNTLYLQMNSLRAEDTAVYYCAKGPYTSRHNSLGHFDYWGQGTLVTVSS
notes: VH dAb
Consider B7, for which the binding result was “binds”.

B8: DOM.123 (other)
VH: EVQLLESGGGLVQPGGSLRLSCAASGFTFIEYPMRWVRQAPGKGLEWVSLISPSGVFTYYADSVKGRFTISRDNSKNTLYLQMNSLRAEDTAVYYCAKGDESSTFDYWGQGTLVTVSS
notes: VH dAb
Take B8: the binding result is given as “binds”.

B9: DOM.113 (other)
VH: EVQLLESGGGLVQPGGSLRLSCAASGFTFTEYPMSWVRQAPGKGLEWVSVISPLGFTTYYADSVKGRFTISRDNSKNTLYLQMNSLRAEDTAVYYCAKWTGGSGILNSSFDYWGQGTLVTVSS
notes: VH dAb
In the case of B9, the binding result is listed as “binds”.

B10: DOM.131 (other)
VH: EVQLLESGGGLVQPGGSLRLSCAASGFTFGEYEMVWVRQAPGKGLEWVSSITSDGLSTYYADSVKGRFTISRDNSKNTLYLQMNSLRAEDTAVYYCAKPGIRFDYWGQGTLVTVSS
notes: VH dAb
In the case of B10, the binding result is “binds”.

B11: DOM.205 (other)
VH: B10 VH with G30A, E31S, E33Q, V35A, S50G, D54G, I101R, R102G
notes: VH dAb
Take B11: the binding result was “binds”.

B12: DOM.184 (other)
VH: B10 VH with G30S, E31D, V35M, D54H, L56G, G100D, I101K, R102D
notes: VH dAb
On to B12, for which the binding result is listed as “binds”.

B13: DOM.134 (other)
VH: B10 VH with G30A, E31D, V35T, L56V, G100S, I101V, R102Q
notes: VH dAb
With B13, the binding result is “binds”.

B14: DOM.206 (other)
VH: B10 VH with G30A, E31S, V35T, S50G, T52S, I101V, R102L
notes: VH dAb
With B14, the binding result was “binds”.

B15: DOM.190 (other)
VH: EVQLLESGGGLVQPGGSLRLSCAASGFTFSMYDMHWVRQAPGKGLEWVSTILSDGTDTYYADSVKGRFTISRDNSKNTLYLQMNSLRAEDTAVYYCAKYGAMFDYWGQGTLVTVSS
notes: VH dAb
Turning to B15, the binding result is reported as “binds”.

B16: DOM.180 (other)
VH: B10 VH with G30T, E31D, V35G, S50T, D54L, L56E, I101R, R102I
notes: VH dAb
Consider B16, for which the binding result is “binds”.

B17: DOM.186 (other)
VH: B10 VH with F27L, E31R, V35A, T52D, L56W, S57V, K98Q, G100D, I101S, R102L
notes: VH dAb
B17: the binding result is “binds”.

B18: DOM.196 (other)
VH: B10 VH with G30S, E31G, V35A, S53D, D54M, L56D, I101T, R102A, Q108P
notes: VH dAb
On to B18, for which the binding result is recorded as “binds”.

B19: DOM.208 (other)
VH: B10 VH with G30T, V35S, T52D, S53N, D54V, L56S, I101K, R102L
notes: VH dAb
B19: the binding result is on record as “binds”.

B20: DOM.178 (other)
VH: EVQLLESGGGLVQPGGSLRLSCAASGFTFEDFDMAWVRQAPGKGLEWVSSINDQGSLTYYADSVKGRFTISRDNSKNTLYLQMNSLRAEDTAVYYCAKPDQFFDYWGQGTLVTVSS
notes: VH dAb
Consider B20, for which the binding result is listed as “binds”.

B21: DOM.120 (other)
VH: EVQLLESGGGLVQPGGSLRLSCAASGFTFRSYTMGWVRQAPGKGLEWVSSINPMGYQTYYADSVKGRFTISRDNSKNTLYLQMNSLRAEDTAVYYCAKHGVGKGTKPHNFDYWGQGTLVTVSS
notes: VH dAb
Take B21: the binding result is on record as “binds”.

B22: DOM.114 (other)
VH: EVQLLESGGGLVQPGGSLRLSCAASGFRVSNYDLTWVRQAPGKGLEWVSTISATNGSTYYADSVKGRFTISRDNSKNTLYLQMNSLRAEDTAVYYCAAVTWWLLRHNDNLGFWGQGTLVTVSS
Consider B22, for which the binding result was “binds”.

B23: DOM.126 (other)
VH: EVQLLESGGGLVQPGGSLRLSCAASGFTFANYSMSWVRQAPGKGLEWVSSIDRLGTHTYYADSVKGRFTISRDNSKNTLYLQMNSLRAEDTAVYYCAKVLADLIAGHAEFDYWGQGTLVTVSS
notes: VH dAb
Turning to B23, the binding result is “binds”.

B24: DOM.100 (other)
VL: DIQMTQSPSSLSASVGDRVTITCRASQNIKHSLRWYQQKPGKAPRLLIYHRSQLQSGVPSRFSGSGSGTDFTLTISSLQPEDFATYYCQQVRHRPYTFGQGTKVEIKR
notes: Vk dAb
With B24, the binding result is “binds”.

B25: DOM.102 (other)
VL: B24 VL with N28H, K30G, S32H, R45K, Q53H, F83S, V91W, R92D, H93R, R94P
notes: Vk dAb
For the molecule B25, the binding result is on record as “binds”.

B26: DOM.115 (other)
VH: EVQLLESGGGLVQPGGSLRLSCAASGFSISYKNMAWVRQAPGKGLEWVSAIKAANGSTYYADSVKGRFTISRDNSKNTLYLQMNSLRAEDTAVYYCATGSQKKRTYTFDFWGQGTLVTVSS
In the case of B26, the binding result is reported as “binds”.
